One assay concerns the target P/A#1(600)-GMCSF. The experiment in a line: ELISA, Fab titrated on P/A#1(600)-GMCSF. (An ELISA detects its analyte on a solid surface through an enzyme-linked reagent.)
The target of assay [1] is T1, PAS #1(200)-IL1Ra.
T1 construct: PASylated fusion protein produced in E. coli; Biotinylated for the SPR measurements with Fabs
The experiment in a line: SPR, biotinylated antigen on CAPture chip, Fab as analyte, 1:1 model. (In general: Surface plasmon resonance follows binding to a sensor surface in real time, without labels.)

The target in a further assay is T2, H1GA-PAS #1(200)-His6.
T2 construct: also called C-terminally PASylated Anticalin H1GA-PAS #1(200)-His6
T2 chain: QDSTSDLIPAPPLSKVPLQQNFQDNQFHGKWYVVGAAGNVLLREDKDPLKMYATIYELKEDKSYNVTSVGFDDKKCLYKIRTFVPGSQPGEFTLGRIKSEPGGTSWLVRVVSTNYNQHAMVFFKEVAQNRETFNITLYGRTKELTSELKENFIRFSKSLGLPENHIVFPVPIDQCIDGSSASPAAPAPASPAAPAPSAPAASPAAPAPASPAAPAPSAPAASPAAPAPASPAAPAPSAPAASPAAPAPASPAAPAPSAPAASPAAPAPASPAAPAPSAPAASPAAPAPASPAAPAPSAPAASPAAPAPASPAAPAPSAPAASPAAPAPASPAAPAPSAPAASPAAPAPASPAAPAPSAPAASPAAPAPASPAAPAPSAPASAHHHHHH
The experiment in a line: affinity chromatography of a periplasmic extract on Fab coupled to a 1 ml HiTrap column, elution with 1 M L-prolinamide; blank-corrected A280 trace and SDS-PAGE [B].

The target in assay [2] is T3, PAS #1(600)-Leptin.
T3 chain: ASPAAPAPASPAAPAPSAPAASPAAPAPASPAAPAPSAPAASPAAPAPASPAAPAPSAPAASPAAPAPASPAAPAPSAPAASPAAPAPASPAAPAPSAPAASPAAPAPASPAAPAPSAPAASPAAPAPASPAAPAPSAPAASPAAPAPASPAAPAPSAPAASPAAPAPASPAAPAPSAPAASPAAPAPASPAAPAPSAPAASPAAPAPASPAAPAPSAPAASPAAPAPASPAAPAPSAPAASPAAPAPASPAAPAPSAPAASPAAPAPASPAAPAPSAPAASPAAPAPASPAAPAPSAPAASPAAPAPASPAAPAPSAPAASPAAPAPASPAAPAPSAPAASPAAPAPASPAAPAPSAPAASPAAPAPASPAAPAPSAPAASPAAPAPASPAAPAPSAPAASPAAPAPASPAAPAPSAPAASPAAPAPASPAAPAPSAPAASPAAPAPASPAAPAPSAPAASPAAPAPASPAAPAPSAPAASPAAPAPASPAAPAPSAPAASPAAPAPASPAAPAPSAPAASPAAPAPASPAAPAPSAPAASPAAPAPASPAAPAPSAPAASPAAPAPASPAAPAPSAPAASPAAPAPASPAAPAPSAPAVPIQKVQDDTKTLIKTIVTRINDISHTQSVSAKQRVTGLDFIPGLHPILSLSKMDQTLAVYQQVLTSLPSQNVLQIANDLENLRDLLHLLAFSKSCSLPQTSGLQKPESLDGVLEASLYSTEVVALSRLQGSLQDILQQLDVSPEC
Kind of assay: ELISA, Fab titrated on PAS#1(600)-Leptin (x axis: Fab concentration).

Assay [3] addresses T3, PAS #1(600)-Leptin. Kind of assay: ELISA, antigen coated, Fab titrated.
A further assay has as its target T4, StrepII-eGFP-PAS #1(200).
T4 construct: also called StrepII-eGFP-PAS #1(200) fusion protein
The experiment in a line: affinity chromatography on Fab coupled to a 1 ml HiTrap NHS column, elution with 1 M L-prolinamide; A280/A488 traces and SDS-PAGE of the fractions.

For the next assay, the target named is IL1Ra-PAS#1(800). The experiment in a line: ELISA, Fab titrated on IL1Ra-PAS#1(800) (x axis: Fab concentration).
Assay [4] addresses T5, P/A #1 sequence.
T5 construct: in sentences on specificity it stands for P/A #1 polypeptides in general
T5 peptide: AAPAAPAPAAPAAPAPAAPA
The experiment in a line: ELISA and SPR with Fabs.

Assay [5] concerns the target T5, P/A #1 sequence. The experiment in a line: SPOT peptide array / hybridoma screening.
In a further assay the target is T6, IL1Ra (Kineret/Anakinra) (UniProt P18510 26-177).
T6 construct: Commercial drug product; also called non-PASylated protein version
Kind of assay: western blot, hybridoma supernatant 1:2000.

For assay [6], the target named is T7, PASylated Thymosin alpha 1.
T7 construct: also called PASylated Tα1
T7 chain: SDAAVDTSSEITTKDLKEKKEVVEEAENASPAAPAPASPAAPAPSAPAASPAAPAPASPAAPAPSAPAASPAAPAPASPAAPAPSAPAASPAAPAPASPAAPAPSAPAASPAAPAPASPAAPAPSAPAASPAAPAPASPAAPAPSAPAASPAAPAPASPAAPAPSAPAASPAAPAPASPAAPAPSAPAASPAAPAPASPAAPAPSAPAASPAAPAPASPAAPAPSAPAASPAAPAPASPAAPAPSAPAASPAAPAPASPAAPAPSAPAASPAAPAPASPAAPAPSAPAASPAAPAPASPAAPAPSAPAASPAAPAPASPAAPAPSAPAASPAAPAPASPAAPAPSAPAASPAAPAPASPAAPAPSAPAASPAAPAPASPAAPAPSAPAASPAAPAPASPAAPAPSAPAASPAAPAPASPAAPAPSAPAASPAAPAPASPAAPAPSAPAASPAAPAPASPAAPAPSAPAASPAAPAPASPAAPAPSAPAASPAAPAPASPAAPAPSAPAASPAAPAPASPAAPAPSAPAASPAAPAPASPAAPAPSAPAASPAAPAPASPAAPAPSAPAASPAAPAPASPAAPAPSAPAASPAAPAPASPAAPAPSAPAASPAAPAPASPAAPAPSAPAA
Kind of assay: sandwich ELISA in diluted rat plasma: MAb 2.1 coated as capture antibody, MAb 1.2-alkaline phosphatase as detection reagent; calibration curve.

Assay [7] addresses T1, PAS #1(200)-IL1Ra. Kind of assay: SPR, MAb from hybridoma supernatant captured by anti-mouse antibody, antigen as analyte, bivalent analyte model.
Assay [8] has as its target T8, P/A #1(200)-IL1Ra.
T8 construct: PASylated fusion protein produced in E. coli; Biotinylated for the SPR measurements with Fabs
The experiment in a line: Western blot of the fusion protein after SDS-PAGE; anti-mouse IgG Fc-AP, BCIP/NBT [G]. For orientation: In western blotting, separated proteins are transferred to a membrane and probed.

For assay [9], the target named is T9, hu4D5-PAS #1(200).
T9 construct: Detected with anti-human kappa light chain antibody in the capture ELISA
Kind of assay: MAb capture ELISA, hybridoma supernatant on anti-mouse IgG Fc, antigen titrated.

Assay [10] addresses T9, hu4D5-PAS #1(200). The experiment in a line: MAb capture ELISA: MAb from hybridoma supernatant captured by anti-mouse IgG Fc, hu4D5-PAS#1(200) titrated (x axis: antigen concentration).
Assay [11] has as its target T10, anti-Galectin-PAS(200) Fab fragment.
T10 construct: also called PASylated humanized anti-Galectin Fab fragment; PAS-Fab
Kind of assay: SPR, MAb 1.1 covalently coupled to a CM5 chip, PASylated anti-Galectin Fab injected.

Assay [12] deals with T8, P/A #1(200)-IL1Ra. The experiment in a line: Western blot of the fusion protein after SDS-PAGE; anti-mouse IgG Fc-AP, BCIP/NBT [F].
Assay [13] concerns the target T11, APSA(200)-IL1Ra.
T11 construct: Fusion protein produced in E. coli; Labelled with DIG-NHS in the MAb capture ELISA
Kind of assay: ELISA, Fab titrated on coated APSA(200)-IL1Ra.

In the next assay the target is T12, APSA(200)-TrxA.
T12 construct: Biotinylated and immobilised on a biotin CAPture chip; also called thioredoxinA-APSA(200)
The experiment in a line: SPR, biotinylated antigen on CAPture chip, Fab as analyte, 1:1 model.

The next assay addresses T13, Pga-APSAAPSAAPSA (N-terminal pyroglutamyl residue (Pga), counted as P1 in the structure).
T13 construct: Peptide ligand co-crystallised with the Fab of MAb 3.1; also called Pga-(APSA)3 peptide; (APSA)3 peptide
T13 peptide: APSAAPSAAPSA
Kind of assay: co-crystal structure of the recombinant Fab with the peptide.

Assay [14] deals with T11, APSA(200)-IL1Ra. Kind of assay: ELISA, antigen coated, Fab titrated.
In assay [15] the target is T1, PAS #1(200)-IL1Ra. The experiment in a line: Western blot of the fusion protein after SDS-PAGE; anti-mouse IgG Fc-AP, BCIP/NBT [D].
For assay [16], the target named is T11, APSA(200)-IL1Ra. Kind of assay: SPR, MAb from hybridoma supernatant captured by anti-mouse antibody, antigen as analyte, bivalent analyte model.
The target in assay [17] is T11, APSA(200)-IL1Ra. Kind of assay: MAb capture ELISA, hybridoma supernatant on anti-mouse IgG Fc, DIG-labelled antigen titrated.

A word on the EC50 (read off the curve): it is the concentration at which the effect is half-maximal.

T6 sequence (P18510 26-177 limits assumed): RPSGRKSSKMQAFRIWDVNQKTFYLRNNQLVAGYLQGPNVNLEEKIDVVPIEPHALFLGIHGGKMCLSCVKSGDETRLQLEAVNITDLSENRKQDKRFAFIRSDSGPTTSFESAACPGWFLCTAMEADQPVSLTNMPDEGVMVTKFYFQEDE
T8 sequence (chain, as listed by the source limits assumed): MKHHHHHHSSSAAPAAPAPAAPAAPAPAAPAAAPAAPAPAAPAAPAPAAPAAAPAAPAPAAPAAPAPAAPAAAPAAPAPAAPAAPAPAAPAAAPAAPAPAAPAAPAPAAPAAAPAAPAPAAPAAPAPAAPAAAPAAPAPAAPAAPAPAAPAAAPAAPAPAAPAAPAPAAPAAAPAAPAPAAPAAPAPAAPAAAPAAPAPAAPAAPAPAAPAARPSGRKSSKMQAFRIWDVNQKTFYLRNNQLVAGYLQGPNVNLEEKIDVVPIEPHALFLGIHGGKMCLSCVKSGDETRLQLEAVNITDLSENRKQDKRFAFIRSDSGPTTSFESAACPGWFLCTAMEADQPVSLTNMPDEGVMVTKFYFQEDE
T10 sequence (chain, as listed by the source): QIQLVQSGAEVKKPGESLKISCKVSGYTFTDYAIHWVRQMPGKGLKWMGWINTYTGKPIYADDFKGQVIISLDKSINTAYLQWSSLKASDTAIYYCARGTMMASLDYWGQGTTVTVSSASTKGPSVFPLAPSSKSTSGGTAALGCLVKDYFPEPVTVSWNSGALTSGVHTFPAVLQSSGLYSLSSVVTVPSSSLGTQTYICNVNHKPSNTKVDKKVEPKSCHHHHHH

B1: Fab fragment of Anti-PA(S) MAb 1.2 (Fab, V domains shown)
VH: QVQLVESGGGLVQPGGSLKLSCAASGFTFSSYGMSWVRQTPDKRLELVATINSNGGSTYYLDSVKGRFTISRDKAKNTLYLQMSSLKSEDTAMYYCVRGGSIYDGYDYAMDYWGQGTSVTVSS
VL: DIVLTQSPASLAVSLGQRATISCRASQSVSTSSYSYMHWFQQKPGQPPKLLIKYASNLESGVPARFSGSGSGTDFTLNIHPVEEEDTATYYCQHSWEIPLTFGAGTKLELKR
notes: also called Anti-PA(S) MAb 1.2 Fab; anti-PAS Fab 1.2
With B1, the binding result is reported as “no binding (tested: 4000 nM)” with P/A#1(600)-GMCSF, “binds” with H1GA-PAS #1(200)-His6, “binds” with StrepII-eGFP-PAS #1(200) and “no binding” with P/A #1 sequence [4]. The Kd with PAS #1(200)-IL1Ra [1] was 3700 nM; with PAS #1(600)-Leptin [3], 123 nM. Moreover, the “EC50 (read off the curve)” value is around 100 nM with PAS #1(600)-Leptin [2] and around 200 nM in the assay with IL1Ra-PAS#1(800).

B2: Anti-PA(S) MAb 1.2 (antibody, V domains shown)
VH: QVQLVESGGGLVQPGGSLKLSCAASGFTFSSYGMSWVRQTPDKRLELVATINSNGGSTYYLDSVKGRFTISRDKAKNTLYLQMSSLKSEDTAMYYCVRGGSIYDGYDYAMDYWGQGTSVTVSS
VL: DIVLTQSPASLAVSLGQRATISCRASQSVSTSSYSYMHWFQQKPGQPPKLLIKYASNLESGVPARFSGSGSGTDFTLNIHPVEEEDTATYYCQHSWEIPLTFGAGTKLELKR
notes: Mouse monoclonal IgG from hybridoma (culture supernatant); alkaline phosphatase conjugate in the thymosin sandwich ELISA
B2: the binding result in the assay with P/A #1 sequence [5] is on record as “no binding”; with IL1Ra (Kineret/Anakinra), “no binding”; in assay [6] it was “binds”; with P/A #1(200)-IL1Ra [8], “no binding (tested: hybridoma supernatant diluted 1:2000)”. Also, the results for the Kd with PAS #1(200)-IL1Ra [7] and in the assay with hu4D5-PAS #1(200) [9] were 44 nM and 0.162 nM, respectively. Further, the “EC50 (read off the curve)” value with hu4D5-PAS #1(200) [10] is around 0.2 nM.

B3: Anti-PA(S) MAb 1.1 (antibody, V domains shown)
VH: QVQLKESGPGLVAPSQSLSITCTVSGFSLTGYGVNWVRQPPGKGLEWLGMIWGDGITDYNSALKSRLSISKDNSKSQVFLKMNSLQTDDTARYYCARDYYGRRYYAMDYWGQGTSVTVSS
VL: DIVLTQSPASLAVSLGQRATISCRASKSVSSSGYNYMFWYQQKPGQPPKLLIYLASNLESGVPDRFWGSGSGTDFTLNIHPVEEEDAATYYCQHSRELPLTFGAGTKLELKR
notes: Mouse monoclonal IgG from hybridoma (culture supernatant); also called anti-PAS 1.1 MAb; DSM ACC3365
As to B3, the binding result is on record as “no binding” in the assay with P/A #1 sequence [5], “no binding” in the assay with IL1Ra (Kineret/Anakinra), “binds” in [11] and “no binding (tested: hybridoma supernatant diluted 1:2000)” in the assay with P/A #1(200)-IL1Ra [12]. Further, the Kd with PAS #1(200)-IL1Ra [7] was 1 nM; in the assay with hu4D5-PAS #1(200) [9] it was 0.037 nM.

B4: Fab fragment of Anti-PA(S) MAb 3.1 (Fab, V domains shown)
VH: QVQLQQSGAELVRPGASVKLSCKALGYIFTDYEMHWVKQTPVHGLEWIGVIHPGSGNTVYNQKFQGKATLTADKSSSTAYMEVSSLTSEDSAVYYCNLWGRWGQGTTLTVSS
VL: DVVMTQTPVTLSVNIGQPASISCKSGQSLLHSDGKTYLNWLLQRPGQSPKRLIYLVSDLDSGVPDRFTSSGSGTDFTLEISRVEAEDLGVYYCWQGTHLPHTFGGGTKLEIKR
notes: also called Anti-PA(S) MAb 3.1 Fab; anti-APSA antibody fragment
For B4, the “EC50 (read off the curve)” value with APSA(200)-IL1Ra [13] is around 2 nM. For the same molecule, the Kd came to 2.5 nM in the assay with APSA(200)-TrxA and 1.9 nM with APSA(200)-IL1Ra [14]. Moreover, the binding result in the assay with Pga-APSAAPSAAPSA is reported as “binds”.

B5: Anti-PA(S) MAb 3.1 (antibody, V domains shown)
VH: QVQLQQSGAELVRPGASVKLSCKALGYIFTDYEMHWVKQTPVHGLEWIGVIHPGSGNTVYNQKFQGKATLTADKSSSTAYMEVSSLTSEDSAVYYCNLWGRWGQGTTLTVSS
VL: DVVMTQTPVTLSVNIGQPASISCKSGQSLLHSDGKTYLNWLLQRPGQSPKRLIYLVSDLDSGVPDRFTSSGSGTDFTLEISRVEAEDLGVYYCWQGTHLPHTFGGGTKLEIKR
notes: Mouse monoclonal IgG from hybridoma (culture supernatant); also called DSM ACC3367
Regarding B5, the figures for the binding result in the assay with IL1Ra (Kineret/Anakinra) and with PAS #1(200)-IL1Ra [15] were “no binding” and “no binding (tested: hybridoma supernatant diluted 1:2000)”, respectively. The Kd with APSA(200)-IL1Ra [16] amounted to 0.019 nM; with APSA(200)-IL1Ra [17], 0.118 nM.
